Assay results from publication PMC11533912 (Journal of Nuclear Medicine, 2024).
“Also recorded” adds a separate entry of the source.

Assay: Dosimetry: absorbed radiation dose calculation from mouse biodistribution
Details: for Estimated absorbed dose, pancreas / Estimated absorbed dose, red marrow / Estimated absorbed dose, urinary bladder wall / Estimated absorbed dose, kidneys / Estimated absorbed dose, spleen / Estimated absorbed dose, liver / Estimated absorbed dose, heart wall / Estimated absorbed dose, stomach (stem cell layer) / Estimated absorbed dose, lungs (alveolar–interstitial): RBE 5, female mice; for Estimated absorbed dose, red marrow: dose limit 2; for Estimated absorbed dose, urinary bladder wall: dose limit 20; for Estimated absorbed dose, kidneys: dose limit 23; for Estimated absorbed dose, spleen: dose limit 26; for Estimated absorbed dose, liver: dose limit 30; for Estimated absorbed dose, heart wall / Estimated absorbed dose, stomach (stem cell layer): dose limit 45; for Estimated absorbed dose, lungs (alveolar–interstitial): dose limit 65; for Administered activity at which 23-Gy kidney threshold is reached: female mice as printed, projected mean absorbed dose by modeling
Procedure: Physical decay was used to extrapolate after the last time point. The human equivalent time-integrated activity coefficient for both sexes was calculated by extrapolating mouse biodistribution data to human using standard methods assuming that tissue concentration divided by whole-body concentration in mice is the same as that in humans.
The linear energy transfer of α-particles is approximately 400 times greater than that of photons and β-particles. This difference in energy deposition density leads to fundamentally different biologic effects. Accordingly, the absorbed doses for these different emission types should be weighted appropriately to reflect likely biologic effects. The relative biological effectiveness (RBE) is the appropriate weighting factor for deterministic effects such as tissue toxicity and tumor kill efficacy. The tissue-absorbed doses (with RBE values of 3 and 5) for ^212Pb compounds were calculated.

Structure (SMILES): CC(C)C[C@H](NC(=O)C[C@H](O)[C@H](CC(C)C)NC(=O)[C@H](Cc1c[nH]cn1)NC(=O)CNC(=O)[C@@H](NC(=O)[C@H](C)NC(=O)[C@H](Cc1c[nH]c2ccccc12)NC(=O)[C@H](CCC(N)=O)NC(=O)[C@@H](Cc1ccccc1)NC(=O)CCNC(=O)CCNC(=O)CN1CCN(CC(N)=O)CCN(CC(N)=O)CCN(CC(N)=O)CC1)C(C)C)C(N)=O [[^212Pb]Pb-DOTAM-GRPR1, metal not drawn]
- Radiation type contribution to total absorbed dose: α-radiation comprised most of the total absorbed dose
- Estimated absorbed dose, pancreas (0.111 GBq (3 mCi)): 0.287 grays
- Estimated absorbed dose, red marrow (0.111 GBq (3 mCi)): 0.001 grays
- Estimated absorbed dose, urinary bladder wall (0.111 GBq (3 mCi)): 0.021 grays
- Estimated absorbed dose, kidneys (0.111 GBq (3 mCi)): 0.308 grays
- Estimated absorbed dose, spleen (0.111 GBq (3 mCi)): 0.018 grays
- Estimated absorbed dose, liver (0.111 GBq (3 mCi)): 0.109 grays
- Estimated absorbed dose, heart wall (0.111 GBq (3 mCi)): 0.007 grays
- Estimated absorbed dose, stomach (stem cell layer) (0.111 GBq (3 mCi)): 0.044 grays
- Estimated absorbed dose, lungs (alveolar–interstitial) (0.111 GBq (3 mCi)): 0.022 grays
- Estimated absorbed dose, pancreas (0.555 GBq (15 mCi)): 1.434 grays
- Estimated absorbed dose, red marrow (0.555 GBq (15 mCi)): 0.004 grays
- Estimated absorbed dose, urinary bladder wall (0.555 GBq (15 mCi)): 0.103 grays
- Estimated absorbed dose, kidneys (0.555 GBq (15 mCi)): 1.540 grays
- Estimated absorbed dose, spleen (0.555 GBq (15 mCi)): 0.091 grays
- Estimated absorbed dose, liver (0.555 GBq (15 mCi)): 0.543 grays
- Estimated absorbed dose, heart wall (0.555 GBq (15 mCi)): 0.036 grays
- Estimated absorbed dose, stomach (stem cell layer) (0.555 GBq (15 mCi)): 0.219 grays
- Estimated absorbed dose, lungs (alveolar–interstitial) (0.555 GBq (15 mCi)): 0.108 grays
- Estimated absorbed dose, pancreas (1.110 GBq (30 mCi)): 2.867 grays
- Estimated absorbed dose, red marrow (1.110 GBq (30 mCi)): 0.008 grays
- Estimated absorbed dose, urinary bladder wall (1.110 GBq (30 mCi)): 0.206 grays
- Estimated absorbed dose, kidneys (1.110 GBq (30 mCi)): 3.080 grays
- Estimated absorbed dose, spleen (1.110 GBq (30 mCi)): 0.183 grays
- Estimated absorbed dose, liver (1.110 GBq (30 mCi)): 1.086 grays
- Estimated absorbed dose, heart wall (1.110 GBq (30 mCi)): 0.071 grays
- Estimated absorbed dose, stomach (stem cell layer) (1.110 GBq (30 mCi)): 0.438 grays
- Estimated absorbed dose, lungs (alveolar–interstitial) (1.110 GBq (30 mCi)): 0.216 grays
- Dose-limiting organ (calculated mean effective absorbed dose): kidney as the dose-limiting organ; also recorded: the kidneys were shown to be dose-limiting
- Administered activity at which 23-Gy kidney threshold is reached (RBE 3): 13.6 GBq
- Administered activity at which 23-Gy kidney threshold is reached (RBE 5): 8.3 GBq
- Organs with highest absorbed doses (male and female mice): the kidneys and pancreas revealed the highest doses for both male and female animals; also recorded: The kidneys and pancreas received the highest dose
- Estimated absorbed dose, pancreas (maximum 8.29 GBq (224.05 mCi)): 21.42 grays
- Estimated absorbed dose, red marrow (maximum 8.29 GBq (224.05 mCi)): 0.06 grays
- Estimated absorbed dose, urinary bladder wall (maximum 8.29 GBq (224.05 mCi)): 1.54 grays
- Estimated absorbed dose, kidneys (maximum 8.29 GBq (224.05 mCi)): 23.00 grays
- Estimated absorbed dose, spleen (maximum 8.29 GBq (224.05 mCi)): 1.37 grays
- Estimated absorbed dose, liver (maximum 8.29 GBq (224.05 mCi)): 8.11 grays
- Estimated absorbed dose, heart wall (maximum 8.29 GBq (224.05 mCi)): 0.53 grays
- Estimated absorbed dose, stomach (stem cell layer) (maximum 8.29 GBq (224.05 mCi)): 3.27 grays
- Estimated absorbed dose, lungs (alveolar–interstitial) (maximum 8.29 GBq (224.05 mCi)): 1.61 grays
